From patent publication US20200079861A1 (AGENUS, published 2020) come the findings set out here.

The target in experiment [1] is T1, V1M cynomolgus GITR (on 1624-5 cells) (cynomolgus, UniProt Q9Y5U5 26-241 (human entry)).
T1 chain: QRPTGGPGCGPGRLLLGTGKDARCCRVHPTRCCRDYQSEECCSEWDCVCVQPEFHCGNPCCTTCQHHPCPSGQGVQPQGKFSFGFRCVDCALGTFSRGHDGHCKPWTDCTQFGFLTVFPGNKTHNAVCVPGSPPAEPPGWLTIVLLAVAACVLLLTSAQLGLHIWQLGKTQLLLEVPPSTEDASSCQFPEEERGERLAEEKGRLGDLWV
The experiment in a line: flow cytometry on 1624-5 cells. The procedure:
(§1) After washing, the cells were incubated with a secondary anti-IgG antibody if necessary for detection (APC conjugated; BD Cat no. 109-136-097) diluted in 100 μl FACS buffer (PBS+2% FCS) for 20 min at 4° C. The cells were then washed and acquired using a flow cytometer (BD Biosciences). The mean fluorescence intensity (MFI) value of the tested monoclonal antibody was divided by the MFI value of the polyclonal antibody, generating an MFI ratio (monoclonal antibody/polyclonal antibody) for individual GITR alanine mutants. An average MFI ratio (“AMFI ratio”) was calculated based on the individual MFI ratios for all the mutants. […] An individual MFI ratio that is between 30% and 60% of the AMFI ratio is represented by “+/−” in FIG. 10A. An individual MFI ratio that is below 30% of the AMFI ratio is represented by “−” in FIG. 10A.
(§2) As further evidence for the binding characteristics of the anti-GITR antibodies, the binding of the antibodies to cynomolgus GITR was compared. The immature protein of cynomolgus GITR comprises the amino acid sequence of SEQ ID NO:44.

The target of experiment [2] is T2, V1M/Q62P/S63G cynomolgus GITR (on 1624-5 cells) (cynomolgus, UniProt Q9Y5U5 26-241 (human entry)).
T2 construct: V1M lies in the signal peptide; also called mutant cynomolgus GITR V1M/Q62P/S63G
T2 chain: T1 chain with Q37P, S38G
Kind of experiment: flow cytometry on 1624-5 cells, 2 µg/ml antibody. The procedure: as §1, §2
For orientation: A flow cytometer gives signals particle by particle.

In the next experiment the target is T3, human GITR (on cells) (human, UniProt Q9Y5U5 26-241).
T3 construct: Swiss-Prot Q9Y5U5-1 is printed; also called huGITR; wild type human GITR
T3 sequence: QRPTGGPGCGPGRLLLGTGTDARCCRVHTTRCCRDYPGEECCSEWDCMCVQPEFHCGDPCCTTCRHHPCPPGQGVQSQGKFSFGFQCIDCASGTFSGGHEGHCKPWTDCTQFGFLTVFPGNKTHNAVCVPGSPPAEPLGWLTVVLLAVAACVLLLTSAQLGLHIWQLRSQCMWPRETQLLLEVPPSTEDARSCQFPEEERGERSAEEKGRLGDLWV
The experiment in a line: flow cytometry on Jurkat cells expressing GITR only. The procedure: (§3) Hut102 cells (human T cell lymphoma, ATCC) were incubated for 72 hours in RPMI media, supplemented with 1 μg/ml phytohaemagglutinin (PHA) and 10% heat-inactivated FBS, at 37° C. and 5% CO₂ to induce GITR and OX40 expression. Cells ectopically expressing GITR or OX40 were generated by transduction of lentiviral vectors (EF1a promoter) into Jurkat cells. Stable clones were generated via single-cell sorting (FACS ARIA Fusion). Expression was verified by flow cytometry. For binding analysis, stable Jurkat cells or activated Hut102 cells were incubated with test antibodies (12-point dose titration, 0.01-10,000 ng/ml) diluted in FACS buffer (PBS, 2 mM EDTA, 0.5% BSA, pH 7.2) for 30 minutes at 4° C. Samples were washed two times in FACS buffer and then incubated with APC-conjugated mouse anti-human kappa detection antibody (Life Technologies, HP6062) for 30 minutes at 4° C. Samples were then washed two times and analyzed using the LSRFortessa flow cytometer (BD Biosciences). FACS plots were analyzed using a combination of FACS DIVA and WEHI Weasel software. Data were plotted with Graphpad Prism software.

Experiment [3] deals with T4, human GITR G63A mutant (on 1624-5 cells) (human, UniProt Q9Y5U5 26-241).
T4 chain: T3 sequence with G38A
The experiment in a line: flow cytometry on 1624-5 cells, 2 µg/ml antibody, MFI ratio to polyclonal antibody, mutant versus wild type. The procedure:
(§4) An average MFI ratio (“AMFI ratio”) was calculated based on the individual MFI ratios for all the mutants. […] An individual MFI ratio that is between 30% and 60% of the AMFI ratio is represented by “+/−” in FIG. 10A. An individual MFI ratio that is below 30% of the AMFI ratio is represented by “−” in FIG. 10A.
(§5) All the mean fluorescence intensity (MFI) values were calculated as the mean of two measurements.

The target in experiment [4] is T5, GITR antigen (R&D systems, disulfide-linked homodimer; 689-GR) (human, UniProt Q9Y5U5 26-161, R-PE labeled in the suspension array assay; unlabeled and amine-coupled to the chip in SPR).
T5 construct: also called R-PE labeled GITR antigen
T5 sequence (looked up): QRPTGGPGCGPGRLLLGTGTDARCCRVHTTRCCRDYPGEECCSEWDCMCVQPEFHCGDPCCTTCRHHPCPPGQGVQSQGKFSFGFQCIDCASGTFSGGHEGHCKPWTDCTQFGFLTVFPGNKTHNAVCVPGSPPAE
Kind of experiment: Luminex suspension array, competitor at 20 µg/ml pre-incubated with R-PE labeled GITR antigen; captured antibody 231-32-15. The procedure: (§6) The bead mixture and the antigen/antibody mixture were mixed 1:1 (20 μl from each) and incubated for one additional hour under shaking conditions (20° C., 650 rpm). Directly before the measurement, 40 μl of assay buffer was added to each well and analysis was performed using a Luminex® 200 system (Millipore) and a readout of 100 beads in 48 μl sample volume. Binding was determined using the MFI values of the non-competed control (100% binding, only assay buffer as competing compound).

For another experiment, the target named is T6, human OX40 (on cells) (human, UniProt P43489 29-277).
T6 construct: also called huOX40; TNFRSF4
T6 sequence: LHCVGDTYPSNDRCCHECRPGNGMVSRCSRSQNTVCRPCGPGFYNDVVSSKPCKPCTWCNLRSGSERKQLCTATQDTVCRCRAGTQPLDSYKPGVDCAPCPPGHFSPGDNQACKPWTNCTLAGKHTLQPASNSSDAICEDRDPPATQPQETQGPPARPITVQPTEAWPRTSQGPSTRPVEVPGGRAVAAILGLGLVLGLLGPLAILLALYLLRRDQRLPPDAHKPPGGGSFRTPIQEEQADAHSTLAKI
The experiment in a line: flow cytometry on Jurkat cells expressing OX40 only. The procedure:
as §3

Experiment [5] addresses T5, GITR antigen (R&D systems, …). The experiment in a line: SPR (BIAcore), GITR antigen immobilized on the chip, antibody at 300 nM. The procedure:
Flow cell 2 contained GITR antigen in low density (667 RU), medium density was assessed in flow cell 3 (1595 RU) and in flow cell 4, high density was achieved (4371 RU). In flow cell 1, ovalbumin (1289 RU, Pierce ThermoFisher 77120) was immobilized for reference. Immobilization was performed according to a standard protocol from the manufacturer (GE Healthcare) for amine coupling (activation of surface with 0.4 M EDC and 0.1 M NHS, GE Healthcare Amine coupling kit, BR-1000-50). […] Afterwards anti-GITR antibodies were run through the different surfaces at a concentration of 300 nM (45 μg/ml) for 240 seconds at 5 μl/min. […] A dissociation time of 60 seconds was included before adding the competing antibody (300 nM, 5 μl/min).
(SPR reads the build-up and loss of mass on a sensor chip optically.)

In experiment [6] the target is T7, human GITR D60A mutant (on 1624-5 cells) (human, UniProt Q9Y5U5 26-241).
T7 chain: T3 sequence with D35A
The experiment in a line: flow cytometry on 1624-5 cells, 2 µg/ml antibody, MFI ratio to polyclonal antibody, mutant versus wild type. The procedure:
as §4, §5

Experiment [7] has as its target T5, GITR antigen (R&D systems, …). Kind of experiment: Luminex suspension array, m6C8 captured on beads, R-PE labeled GITR antigen; data not shown. The procedure:
as §6

Numbering of substitutions follows the chain as printed. In names and notes the source's numbering stands.

B1: pab1876 (antibody, human IgG1, V domains shown)
VH: QVQLVQSGAEVKKPGASVKVSCKGSGYTFTDYAMYWVRQAPGQGLEWIGVIRTYSGDVTYNQKFKDRATMTVDKSISTAYMELSRLRSDDTAVYYCAKSGTVRGFAYWGQGTLVTVSS
VL: DIVMTQSPDSLAVSLGERATINCKSSQSLLNSGNQKNYLTWYQQKPGQPPKLLIYWASTRESGVPDRFSGSGSGTDFTLTISSLQAEDVAVYHCQNDYSYPYTFGQGTKLEIKR
notes: also called bivalent monospecific antibody pab1876; pab1876w (same chains without light chain T109S)
B1: the binding result is recorded as “no binding (tested: 2 µg/ml)” in [1], “binds” in [2], “binds” with human GITR (on cells) and “binds” in [4]. In addition, the “percentage of reduction in binding relative to wild type GITR” value in experiment [3] was determined as 59%.

B2: pab1875 (antibody, V domains shown)
VH: B1 VH
VL: DIVMTQSPPTLSLSPGERVTLSCKSSQSLLNSGNQKNYLTWYQQKPGQAPRLLIYWASTRESGIPARFSGSGSGTDFTLTISSLQPEDFAVYHCQNDYSYPYTFGQGTKLEIK
As to B2, the binding result in experiment [4] is recorded as “binds”.

B3: pab2049 (antibody, human IgG1, V domains shown)
VH: EVQLVESGGGLVQPGGSLKLSCAASGFTFSGSAMHWVRQASGKGLEWVGRIRSKANSYATAYAASVKGRFTISRDDSKNTAYLQMNSLKTEDTAVYYCTSGIYDSSGYDYWGQGTLVTVSS
VL: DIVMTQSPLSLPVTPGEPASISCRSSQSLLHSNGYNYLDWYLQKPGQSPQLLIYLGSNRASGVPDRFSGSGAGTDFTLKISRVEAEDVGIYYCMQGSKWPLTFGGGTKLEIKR
notes: also called bivalent monospecific antibody pab2049; pab2049w (same chains without light chain T109S)
In the case of B3, the binding result with human OX40 (on cells) is “binds”.

B4: chimeric parental 231-32-15 antibody (antibody, V domains shown)
VH: QVQLLQSGTELVRPGVSVKISCKGSGYTFTDYAMYWVKQSHAKSLEWIGVIRTYSGDVTYNQKFKDKATMTVDKSSSIAYMELARLSSEDSAIYYCAKSGTVRGFAYWGQGTLVTVSS
VL: DIVMTQSPSSLTVTAGEKVIMSCKSSQSLLNSGNQKNYLTWYQQKPGQPPKLLIYWASTRESGVPDRFTGSGSGTDFTLTISSVQAEDLAVYHCQNDYSYPYTFGGGTKLEIK
notes: Chimeric antibody
In the case of B4, the results for the binding result in experiment [1], in experiment [2] and in [5] were “no binding (tested: 2 µg/ml)”, “binds” and “binds”, respectively. Besides, the results for the “percentage of reduction in binding relative to wild type GITR” value in experiment [6] and in experiment [3] were 82% and 37%, respectively.

B5: m6C8 (antibody, V domains shown)
VH: QVTLKESGPGILKPSQTLSLTCSFSGFSLSTSGMGVGWIRQPSGKGLEWLAHIWWDDDKYYNPSLKSQLTISKDTSRNQVFLKITSVDTADAATYYCARTRRYFPFAYWGQGTLVTVSS
VL: DIVMTQSQKFMSTSVGDRVSVTCKASQNVGTNVAWYQQKPGQSPKALIYSASYRYSGVPDRFTGSGSGTDFTLTINNVHSEDLAEYFCQQYNTDPLTFGAGTKLEIK
notes: Generated from the variable regions of antibody 6C8 of WO 2006/105021; also called murine antibody 6C8
With B5, the binding result in experiment [7] was “binds”. The “percentage of reduction in binding relative to wild type GITR” value in experiment [6] was 10%. Further, the “percentage of increase in binding relative to wild type GITR” value in experiment [3] stood at 62%.
